The values that follow come from patent US20230192842A1 (published 2023).

Residue numbers refer to the chain shown, from its start.

Holding throughout (test): flow cytometry, 906-mAb-PE on RKO KO cells expressing the mutant
Assay [1] has as its target T1, human CLDN3 N38A mutant on RKO KO cells (human, UniProt O15551 1-220).
T1 construct: Single-point alanine mutant, monoclonal RKO KO line with GFP
T1 chain: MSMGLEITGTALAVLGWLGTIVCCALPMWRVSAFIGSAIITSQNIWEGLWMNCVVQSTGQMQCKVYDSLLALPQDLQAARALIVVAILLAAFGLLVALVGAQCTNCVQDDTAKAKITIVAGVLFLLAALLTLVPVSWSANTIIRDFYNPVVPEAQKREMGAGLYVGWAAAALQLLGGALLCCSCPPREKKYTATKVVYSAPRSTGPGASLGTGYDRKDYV
As for the experimental part: (§1) Flow cytometry. RKO KO target cells were seeded for flow cytometry as described in previous sections. Wells were topped up with flow buffer (PBS+2% FBS+2 mM EDTA+0.05% sodium azide) and plates were centrifuged at 300×g for 5 minutes. Supernatant was flicked off, cells were resuspended in 150 uL flow buffer. Plate was centrifuged at 300×g for 5 minutes. Supernatant was flicked off and cells were resuspended in 50 uL IgG block at 1:100 for 10 minutes at RT. Following incubation, plate was washed twice as above. Cells were resuspended in 50 uL of diluted antibodies (all a 1 in 300 dilution) in flow buffer, or flow buffer alone (unstained control). Cells were incubated for 30 minutes at RT. After incubation, plates were washed twice with 150 uL flow buffer. […]
(§2) Data Analysis: Flow Cytometry. Flow cytometry data was analysed using FLOWJO and further analysed in Microsoft excel and RStudio. […] Statistics for % PE-positive cells (as % of live cells) and Median Fluorescence Intensity (MFI) were calculated in FLOWJO and exported to Microsoft Excel for further analysis. […] Briefly, MFI was log 10 transformed and a mixed model was used with a fixed effect for cell line and a random effect for Plate, whilst % Parent was analysed on a linear scale in a mixed model with a fixed effect for cell line and a random effect for plate.

The target in assay [2] is T2, human CLDN3 E153A mutant on RKO KO cells (human, UniProt O15551 1-220).
T2 construct: Single-point alanine mutant, monoclonal RKO KO line with GFP
T2 chain: T1 chain with A38N, E153A
How it is done:
as §1, §2

Assay [3] deals with T1, human CLDN3 N38A mutant on RKO KO cells. How it is done: (§3) Flow cytometry. RKO KO target cells were seeded for flow cytometry as described in previous sections. Wells were topped up with flow buffer (PBS+2% FBS+2 mM EDTA+0.05% sodium azide) and plates were centrifuged at 300×g for 5 minutes. Supernatant was flicked off, cells were resuspended in 150 uL flow buffer. Plate was centrifuged at 300×g for 5 minutes. Supernatant was flicked off and cells were resuspended in 50 uL IgG block at 1:100 for 10 minutes at RT. Following incubation, plate was washed twice as above. Cells were resuspended in 50 uL of diluted antibodies (all a 1 in 300 dilution) in flow buffer, or flow buffer alone (unstained control). Cells were incubated for 30 minutes at RT. After incubation, plates were washed twice with 150 uL flow buffer. Cells were then resuspended in 100 uL flow buffer containing DAPI at a 1:200 concentration as a live/dead stain. Cells were run immediately on the CYTOFLEXS. Cells were acquired on fast flow rate, with a stopping condition of 10,000 live cells (based on Total>Singlets>Live).
(§4) Cell lines for analysis included RKO KO, a CLDN3 knockout (included as a negative control), RKO KO CLDN3 mutant cells (with various single-amino acid CLDN3 mutations) and RKO KO CLDN3 WT cells (positive control). RKO KO CLDN3 mutant cell lines were selected and generated as outlined in previous sections.

Assay [4] addresses T2, human CLDN3 E153A mutant on RKO KO cells. As for the experimental part: as §3, §4
The target of assay [5] is human CLDN3 R157A mutant on RKO KO cells (human) (UniProt O15551).
Sequence of human CLDN3 R157A mutant on RKO KO cells (human) (O15551 whole entry R157A): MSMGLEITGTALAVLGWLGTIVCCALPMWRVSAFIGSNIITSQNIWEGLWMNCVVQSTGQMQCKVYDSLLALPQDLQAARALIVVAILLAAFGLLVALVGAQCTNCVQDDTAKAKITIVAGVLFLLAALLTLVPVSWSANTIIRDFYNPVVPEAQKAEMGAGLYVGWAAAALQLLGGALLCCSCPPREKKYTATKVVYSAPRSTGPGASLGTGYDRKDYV
The target of assay [6] is human CLDN3 K156A mutant on RKO KO cells (human) (UniProt O15551).
Sequence of human CLDN3 K156A mutant on RKO KO cells (human) (O15551 whole entry K156A): as the sequence (O15551 whole entry R157A) above, with K156A, A157R counted along it
Assay [7] addresses human CLDN3 I39A mutant on RKO KO cells (human) (UniProt O15551).
Assay [8] concerns the target human CLDN3 I45A mutant on RKO KO cells (human) (UniProt O15551).

Sequence of human CLDN3 I39A mutant on RKO KO cells (human) (O15551 whole entry I39A): as the sequence (O15551 whole entry R157A) above, with I39A, A157R counted along it
Sequence of human CLDN3 I45A mutant on RKO KO cells (human) (O15551 whole entry I45A): as the sequence (O15551 whole entry R157A) above, with I45A, A157R counted along it

B1: 906-mAb (anti-CLDN3 906-mAb, monoclonal antibody version of the scFv of 906-009_LNGFR) (antibody, V domains shown)
VH: QVQLVQSGAEVKKPGSSVKVSCKASGYTFTNYWVHWVRQAPGQGLEWMGRIEPNSSGSQYNEKFKNRVTITADKSTSTAYMELSSLRSEDTAVYYCARGVMVPLDYWGQGTLVTVSS
VL: DIQMTQSPSSLSASVGDRVTITCKASQDINRYIAWYQQKPGKAPKLLIHYTSTLQPGVPSRFSGSGSGTDFTLTISSLQPEDFATYYCLQYETLYSFGQGTKLEIK
For the molecule B1, the “fold change MFI vs CLDN3 WT” value in assay [1] and in assay [2] was 0.01 fold vs CLDN3 WT each time. For the same molecule, the binding result in assay [3] and in assay [4] was “no binding” in each case. Further, the fold change MFI vs CLDN3 WT (fold vs CLDN3 WT) worked out at 1.31 in assay [5], 0.73 in assay [6], 0.95 in assay [7] and 3.17 in assay [8].
